The results in this text go back to patent US20250197488A1 (MABWELL SHANGHAI BIOSCIENCE, published 2025).

Assay [1] concerns the target T1, IL-11 (Cat. 12225-HNCE, Sino Biological Inc.) (UniProt P20809 22-199, limits assumed).
T1 sequence (looked up): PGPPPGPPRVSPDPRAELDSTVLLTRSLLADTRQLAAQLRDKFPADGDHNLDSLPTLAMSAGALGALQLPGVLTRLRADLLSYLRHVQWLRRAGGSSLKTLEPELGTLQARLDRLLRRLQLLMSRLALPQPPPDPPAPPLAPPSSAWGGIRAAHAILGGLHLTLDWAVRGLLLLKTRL
In words: cell-based or functional assay.

The target in assay [2] is T2, human IL-11 (AAH12506.1, Pro22-Leu199) (human, UniProt P20809 22-199).
T2 construct: The range Pro22-Leu199 counts on AAH12506.1; The Octet runs say only 'human IL-11'; also called hIL-11
T2 chain: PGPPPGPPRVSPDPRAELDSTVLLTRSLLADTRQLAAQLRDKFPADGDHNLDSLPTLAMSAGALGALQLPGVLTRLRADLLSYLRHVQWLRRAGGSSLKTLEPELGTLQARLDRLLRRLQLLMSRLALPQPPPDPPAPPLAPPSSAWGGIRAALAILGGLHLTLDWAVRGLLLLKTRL
As to the kind of experiment: BLI (Octet), antibody captured, human IL-11 in solution. The method in brief: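 On a Fortebio Octet QKe System, antibodies in HBS-EP+ buffer were captured on anti-mouse IgG Fc or anti-human Fc biosensors. Human IL-11 was flowed over at 300 nM in the same buffer, with a 300-second association followed by a 300-second dissociation. Blank-subtracted curves were fitted to a 1:1 Langmuir binding model to give kon, koff and Kd.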
Background: BLI is a label-free optical method that tracks binding on a fibre tip over time.

B1: hz18A10-VHm3 + hz18A10-VLm9 (antibody, V domains shown)
VH: EVQLVQSGAEVKKPGASVKVSCKASGYTFTTYDMDWVRQAPGQGLEWMGTIYPGNGDTSYNQKFKGRVTMTRDTSTSTVYMELSSLRSEDTAVYYCARGDLYALDYWGQGTLVTVSS
VL: DIQMTQSPSSLSASVGDRVTITCKASQSVYSDVAWYQQKPGKAPKLLIYSASNRYTGVPSRFSGSGSGTDFTFTISSLQPEDIATYYCQHDYSSPYTFGQGTKLEIK
notes: Constant regions not restated for this antibody
On to B1, for which, in assay [1], the “Blocking activity (IC50), STAT3-luc reporter” value (“Blocking activity (IC50)” below) was 0.248 µg/mL. Moreover, in assay [2], binding was put at a Kd of 95.9 pM, the koff (commonly a measure of how fast the partners let go of each other) was 9.7e-05 s⁻¹ and the kon (commonly the rate constant with which the complex forms) is 1.01e+06 M⁻¹ s⁻¹.

B2: hz18A10-VHm3 + hz18A10-VLm19 (antibody, V domains shown)
VH: EVQLVQSGAEVKKPGASVKVSCKASGYTFTTYDMDWVRQAPGQGLEWMGTIYPGNGDTSYNQKFKGRVTMTRDTSTSTVYMELSSLRSEDTAVYYCARGDLYALDYWGQGTLVTVSS
VL: DIQMTQSPSSLSASVGDRVTITCKASQSVYRDVAWYQQKPGKAPKLLIYSASNRYTGVPSRFSGSGSGTDFTFTISSLQPEDIATYYCQHDYSSPYTFGQGTKLEIK
notes: as for B1
Take B2: the “Blocking activity (IC50)” value in assay [1] was determined as 0.262 µg/mL. In assay [2], the equilibrium dissociation constant (Kd) – broadly, the constant that tells how readily two partners part at equilibrium – stood at 683 pM; the koff turned out to be 0.000652 s⁻¹; the kon amounted to 954000 M⁻¹ s⁻¹.

B3: hz18A10-VHm5 + hz18A10-VLm9 (antibody, V domains shown)
VH: EVQLVQSGAEVKKPGASVKVSCKASGYTFITYNMDWVRQAPGQGLEWMGTIYPGNGDTSYNQKFKGRVTMTRDTSTSTAYMELSSLRSEDTAVYYCARADLHFLDYWGQGTLVTVSS
VL: DIQMTQSPSSLSASVGDRVTITCKASQSVYSDVAWYQQKPGKAPKLLIYSASNRYTGVPSRFSGSGSGTDFTFTISSLQPEDIATYYCQHDYSSPYTFGQGTKLEIK
notes: as for B1
For the molecule B3, the “Blocking activity (IC50)” value in assay [1] was determined as 11.6 µg/mL. For the same molecule, in assay [2], the affinity, expressed as Kd, was 1150 pM; the koff was 0.000732 s⁻¹; the kon turned out to be 639000 M⁻¹ s⁻¹.

B4: hz18A10-VHm4 + hz18A10-VLm18 (antibody, V domains shown)
VH: EVQLVQSGAEVKKPGASVKVSCKASGYTFTTYNIDWVRQAPGQGLEWMGTIYPGNGDTSYNQKFKGRVTMTRDTSTSTVYMELSSLRSEDTAVYYCARGDLYALDYWGQGTLVTVSS
VL: DIQMTQSPSSLSASVGDRVTITCKASQSVYRDVAWYQQKPGKAPKLLIYRASSRYTGVPSRFSGSGSGTDFTFTISSLQPEDIATYYCQHDYSSPYTFGQGTKLEIK
notes: as for B1
For B4, the “Blocking activity (IC50)” value in assay [1] was 1.94 µg/mL. In assay [2], binding was characterised by a dissociation constant (Kd) of 322 pM, the koff stood at 0.000266 s⁻¹ and the kon came out at 826000 M⁻¹ s⁻¹.

B5: hz18A10-VHm4 + hz18A10-VLm9 (antibody, V domains shown)
VH: EVQLVQSGAEVKKPGASVKVSCKASGYTFTTYNIDWVRQAPGQGLEWMGTIYPGNGDTSYNQKFKGRVTMTRDTSTSTVYMELSSLRSEDTAVYYCARGDLYALDYWGQGTLVTVSS
VL: DIQMTQSPSSLSASVGDRVTITCKASQSVYSDVAWYQQKPGKAPKLLIYSASNRYTGVPSRFSGSGSGTDFTFTISSLQPEDIATYYCQHDYSSPYTFGQGTKLEIK
notes: as for B1
Take B5: the “Blocking activity (IC50)” value in assay [1] worked out at 2.23 µg/mL. Further, in assay [2], the Kd is 488 pM, the koff was 0.000496 s⁻¹ and the association rate constant (kon) was 1.02e+06 M⁻¹ s⁻¹.

B6: hz18A10-VHm6 + hz18A10-VLm9 (antibody, V domains shown)
VH: EVQLVQSGAEVKKPGASVKVSCKASGYTFNHYDMDWVRQAPGQGLEWMGTIYPGNGDTSYNQKFKGRVTMTRDTSTSTVYMELSSLRSEDTAVYYCARGDLYALDYWGQGTLVTVSS
VL: DIQMTQSPSSLSASVGDRVTITCKASQSVYSDVAWYQQKPGKAPKLLIYSASNRYTGVPSRFSGSGSGTDFTFTISSLQPEDIATYYCQHDYSSPYTFGQGTKLEIK
notes: as for B1
Regarding B6, the “Blocking activity (IC50)” value in assay [1] was 0.034 µg/mL. In assay [2], this molecule returned a Kd of 7.18 pM, a koff of 7.17e-06 s⁻¹ and a kon of 999000 M⁻¹ s⁻¹.
